Laboratory results as given in US12637662B2, “Cells, islets, and organoids that evade immune detection and autoimmunity, methods of production and use thereof” (SALK INSTITUTE FOR BIOLOGICAL STUDIES, priority 2018, dated 2026).
Entries after “also recorded” stand apart in the source; their conditions may differ.

How the values were obtained:
[1] = system: HILO transcriptome; assay: Bulk RNA-Seq transcriptional changes in HILOs; type: cell-based, human; conditions: WNT4 100 ng/ml for days 26-33
Method: Total RNA was isolated from cell pellets treated with RNAlater (Invitrogen) using the RNeasy micro kit (Qiagen) and treated with DNaseI (Qiagen) for 30 minutes at room temperature. Sequencing libraries were prepared from 100-500 ng total RNA using the TruSeq RNA Sample Preparation Kit v2 (Illumina) according to the manufacturer's protocol. Briefly, mRNA was purified, fragmented, and used for first- and second-strand cDNA synthesis followed by adenylation of 3′ ends. Samples were ligated to unique adapters and PCR amplified. Libraries were then validated using the 2100 BioAnalyzer (Agilent), normalized and pooled for sequencing.
RNA-Seq libraries prepared from 3 biological replicates for each experimental condition were sequenced on the Illumina HiSeq 2500 using bar-coded multiplexing and a 100 bp read length. […] This yielded a median of 29.9M usable reads per sample. Short read sequences were mapped to a UCSC hg19 reference sequence using the RNA-Seq aligner STAR (A. Dobin et al., 2013, Bioinformatics, 29:15-21). […] Transcript expression was calculated as gene-level relative abundance in fragments per kilobase of exon model per million (fpkm) mapped fragments and employed correction for transcript abundance bias (A. Roberts et al., 2011, Bioinformatics, 27:2325-2329). […] Scale of heatmaps was determined by Z-score (FIG. 2A, FIG. 3D and FIG. 3G).

[2] = system: insulin-expressing cells of HILOs; assay: Mitochondrial content (MitoTracker) and insulin-GFP by flow cytometry; type: cell-based, human
From the text: FIGS. 8A-8H provide images, graphs, a schematic and a diagram showing results related to WNT4 mediated insulin-GFP expression and WNT4-driven metabolic maturation. FIG. 8A presents representative images of mitochondrial content, indicated by MitoTracker (red) staining, in PBS and WNT4 treated HILOs (scale bar, 100 μm). FIG. 8B presents graphs of flow cytometry quantification of insulin expression (GFP) and mitochondrial content in HILOs treated with recombinant human WNT4 (rhWNT4), WNT5A (rhWNT5A), or conditioned medium (CM) from control or WNT5A overexpressing fibroblasts (n=3). Error bars represent SEM. *p<0.05. FIG. 8C presents a gene ontology of transcriptional changes induced by WNT4 treatment (100 ng/ml WNT4 from day26 to day33) in HILOs. […] Error bars represent SEM. *p<0.05. FIG. 8E presents a Venn diagram showing overlap between WNT4-induced increases in chromatin accessibility in GFP^+ cells and increases in HILO gene expression (upper panel), and gene ontology pathways enriched in the intersection gene set. […] For FIGS. 8G and 8H, postnatal islets (day P11-14) from WT and β cell specific ERRγKO mice were cultured with or without rhWNT4 (100 ng/ml) for >5 days.

B1: WNT4: recombinant human Wnt4 protein (R&D Systems), non-canonical WNT maturation factor (protein, UniProt P56705 23-351, looked up)
Protein Wnt-4: SNWLYLAKLSSVGSISEEETCEKLKGLIQRQVQMCKRNLEVMDSVRRGAQLAIEECQYQFRNRRWNCSTLDSLPVFGKVVTQGTREAAFVYAISSAGVAFAVTRACSSGELEKCGCDRTVHGVSPQGFQWSGCSDNIAYGVAFSQSFVDVRERSKGASSSRALMNLHNNEAGRKAILTHMRVECKCHGVSGSCEVKTCWRAVPPFRQVGHALKEKFDGATEVEPRRVGSSRALVPRNAQFKPHTDEDLVYLEPSPDFCEQDMRSGVLGTRGRTCNKTSKAIDGCELLCCGRGFHTAQVELAERCSCKFHWCCFVKCRQCQRLVELHTCR
With B1 the “number of genes with decreased expression” value [1] was 1354 genes, the “number of genes with increased expression” value [1] was 1581 genes and the “proportion of insulin expressing cells” value ([2]; GFP sorting, HILOs with and without WNT treatment) was “not affected”. The “mitochondrial content / number” value ([2]; MitoTracker, HILOs / insulin-expressing cells) was “increased mitochondrial number; also recorded: increased the mitochondrial content”.
